Assay: soluble on expression in E. coli; label from the status in PepcDB or PDB records

Sequence | soluble on expression in E. coli
MSNFMVENQTEQVSIFLEDAINLITNYVNYHTLPSLLEETPAGNERYYKGLLASMRRLLVFCEEGQDACFVLLNSQPFRKTAAEKILYKIYHQVIAEFFSPKSDHWYENSRSAYTGKNSIVFQQTPPASLEQVMKSLEGKFQLMREELEYYETDYQTKMLHKY | not soluble
MVDLKRLRQEPEVFHRAIREKGVALDLEALLAVDEQLHKQQEVIADKQMSVKEDLDKVEPAVIEAQNAVKSIKKQHLVEVRSMANPPAAVKLALESIALLLGESTTDWKQIRSIIMRENFIPTIVNFSAEEISDAIREKMKKNYMSNPSYNYEIVNRASLAAGPMVKWAIAQLNYADMLKRVEPLRNELQKLEDDAKDNQQKLEALLLQVPLPPWPGAPVGGEEANREIKRVGGPPEFSFPPLDHVALMEKNGWWEPRISQVSGSRSYALKGDLALYELALLRFAMDFMARRGFLPMTLPSYAREKAFLGTGHFPAYRDQVWAIAETDLYLTGTAEVVLNALHSGEILPYEALPLRYAGYAPAFRSEAGSFGKDVRGLMRVHQFHKVEQYVLTEASLEASDRAFQELLENAEEILRLLELPYRLVEVATGDMGPGKWRQVDIEVYLPSEGRYRETHSCSALLDWQARRANLRYRDPEGRVRYAYTLNNTALATPRILAMLLENHQLQDGRVRVPQALIPYMGKEVLEPGAHHHHHH | soluble
MSLDGMPAKQQHNNTGESVELHFHYPIKGKQEPKNSHLVVLIEPKIEINKVIPESYQKEFEKSLFLQLSSFLERKGYSVSQFKDASEIPQDIKEKALLVLRMDGNVAILEDIVEESDALSEEKVIDMSSGYLNLNFVEPKSEDIIHSFGIDVSKIKAVIERVELRRTNSGGFVPKTFVHRIKETDHDQAIRKIMNQAYHKVMVHITKELSKKHMEHYEKVSSEMKKRKEGHHHHHH | soluble
MGSDKIHHHHHHMWLSSEFNRMAEKTFKAYEPDDAFFSTLLYGPEGVGKSTLLVKCCQRLKEKKTILYIDAQDFVKNYAFAAQEGTLSQFRLRLRTPGVLIMDHIEVLKGKTRSIEEFYHTYEALFQRNGRIICGFRGDPSQLGFLGEKLSSRLRGGLVVPILQPTPEDMLNYLRQMAYGKFLIVEDLVLELMAEEAANFPEAQSLMNGFIQFANRTDSALDHDALLLYLQERRYQEGLRPSPQNIIQKVAELTGVAAAAIYSTTRTPEVRQARQLAIYGIRSLSRLSYPEIGASLNKSHSSIMKSYQQFQEAVQKNPELREMLESLVKYFNSPDDEKTER | not soluble
MAHHHHHHMHIFIYIQYLCFGVNEIIFHKPHKCHFFIYNILEGEKGKKPGFINLSNIMNNHNKYESKGFSASSLNNKSFSMTNDKITCGNEKKEMEGEGILNGSSKVDEEDKNIYNSKNNNNNMNYFNNKKIETKKTLGHKDIFVYVLVAGGDGTVNWVLKEAEYYNINDNNFAIGVIPFGTGNDFAKAFGWKKIDRMLNHSFLFDVLKKIVDQTFKSKVEKHDYWNIHVVLKEQGYFNKINSRTKKKETLLNDDKENLHEMKLCMSNYFSIGIDSRIGRGFERHRQKSAVCNKFIYAVEGFKKVSFKKNTPINLIIDKMINMDNNNDNNDNDNNIDGNDNNNDGNDNNNVIFTTNHNESYPLLKKAMSIICINIPSYSSGNDIWNYTHKIGLILPKNITNDQKEQYQILKKTKQEVGDGILEFVIYQSGVDLGLEFTLKGRAYRVHQGFGPWKLLFKEQKYNVYFQVDGEYYLMSLPDYISIEHYKKINVLKNIL | not soluble
AAADSTSMSYSVTLTGPGPWGFRLQGGKDFNMPLTISRITPGSKAAQSQLSQGDLVVAIDGVNTDTMTHLEAQNKIKSASYNLSLTLQKSKRPIPISTTAPPVQTPLPVIPHQKDPALDTNGSLVAPSPSPEARASPGTPGTPELRPTFSPAFSRPSAFSSLAEASDPGPPRASLRAKTSPEGARDLLGPKALPGSSQPRQYNNPIGLYSAETLREMAQMYQMSLRGKASGVGLPGGSLPIKDLAVDSASPVYQAVIKSQNKPEDEADEWARRSSNLQSRSFRILAQMTGTEFMQDPDEEALRRSSTPIEHAPVCTSQATTPLLPASAQPPAAASPSAASPPLATAAAHTAIASASTTAPASSPADSPRPQASSYSPAVAASSAPATHTSYSEGPAAPAPKPRVVTTASIRPSVYQPVPASTYSPSPGANYSPTPYTPSPAPAYTPSPAPAYTPSPVPTYTPSPAPAYTPSPAPNYNPAPSVAYSGGPAEPASRPPWVTDDSFSQKFAPGKSTTSISKQTLPRGGPAYTPAGPQVPPLARGTVQRAERFPASSRTPLCGHCNNVIRGPFLVAMGRSWHPEEFTCAYCKTSLADVCFVEEQNNVYCERCYEQFFAPLCAKCNTKIMGEVMHALRQTWHTTCFVCAACKKPFGNSLFHMEDGEPYCEKDYINLFSTKCHGCDFPVEAGDKFIEALGHTWHDTCFICAVCHVNLEGQPFYSKKDRPLCKKHAHTINL | soluble
RALDTEDIQKVFTKLPQSSAVTSDMRRTQELFVLMFLLRGLPFVDLAYLRKSDLHDNVITYRRRKTGRPLSVTLTPEAMAILKRYMNRDTSSPYLFPLLNSREGTKEAYHEYQLALRNFNRQLMLLGEMLGLGDKLSSYTARHTWATTAYYCEIHPGVISEAMGHSSITVTETYLKPFRNKKIDEANKKVVDFIKRSIPIAMC | not soluble
MGSDKIHHHHHHMSQYAEMSLVYDQLTQDQPYEKWFEIVKNHCKDESNILDIGCGTGSLTVQLEALGNVTGMDLSVDMLTVAAQKSANVNWLEGDMTSFDLQQQFDIITIFCDSLNYLQDETAVIETFINVYHHLTDSGVFIFDVHTVYKMMTLFNNQSYIDDKGDIFLAWDAVQGDLPLSVYHDMTFFIRHEDETYSRFDESHFQRTFDEKTYLSWLAQVGFKHVETFTDFNIDEHNEDTERLFFIAKK | not soluble
MSERRIDVNRSNYSVIDNEFGNMRDRFEQEMRRVEEEMKRLRSEFEGYRPNGGPPAAISNQPYNAYSNTSSHHETSNRTGGFGSPLPPPSFHGPSDLMAHRPTYDPYLDNLKSPLIKDESDGKTLRLRFDVANYKPEEVTVKTIDNRLLVHAKHEEKTPQRTVFREYNQEFLLPRGTNPEQISSTLSTDGVLTVEAPLPQLAIQQ | not soluble
MMLRTEEMILNVGPQHPSTHGVFRLILKIDGEIIQEATPVIGYLHRGTEKIAEGLQYTQIIPYTDRMDYLSAMTNNYVLCHAVETMMGIEVPERAEYLRVLAMELGRIASHLVWWGTYLLDLGATSPFLYAFREREMIINLLNELSGARLTFNYMRIGGVKWDAPDGWIDKVKQFVPYMREKLHGYHELVTGNEIFRQRVTGVGRYTKEEAISYSLSGVNLRSTGVKWDLRKDEPYSIYDRFDFDVPVRDSGDCLARYECRMAEIEQSLCIIEQACEQFPPEGPIMGKVPRIIKAPPGETFVRIEAPRGEIGCYIASDGKKEPYRLKFRRPSFYNLQILPKLLKGENLANVIAILGSIDIVLGEVDG | not soluble
MLAKQRFVLDTTAFTDNQLRELLGDGDLNLSVDRMLDLIARSRIKLNISCHMPPITYKEFTDYMTRYDCPEETLIKAETWIVKKTPNRYDTQIPSQIFYEYVHDIRERMNKGLRISETLLWEAGIQSIIMASRDVKKTEIESEVLGKAIKDLRKKYRSALRKGTLDSAPDLDVLLLAKELGAGVVAADDGIRVWAERLGLRFLNATSFPKMLKEYLKYYE | not soluble
MEALIAYSGRRFARPHYYANAHERDEVDIVPVQMAMHDARAAGTGIDREGFQIVKHTSAVTDFADREQVARIHMREIEELVRAETGADMVHVGAPGLLRFSEKSGRAGSLNNSMPARFAHIDISDRTAQAFGERGANGRPFVRCAAYNVWRAISPPPQDVPLAFCDARSLAPGDLIEADAVFDEPGKPEWSFEGLVVAHNPAHRWYFFPDMRIDEAVLFKTNDSDPARAHHVPHVAFDLPDCPADAPPRVSIEMRATAYWWALEHHHHHH | soluble
MGSDKIHHHHHHMPTPTRWQEKLPEAATTYLEGRRLDEVECVISDLPGIARGKAVPASKFAKQDYFYLPDSIFYQTITGDWAEAADEDGWIEKDMLLRPDMSTATAAPWTGDWTLQVIHDAYDRDGNPIPFSPRNVLKHVVSLYEAQGWKPVVAPEMEFYLVARNVDPARDIQPMMGRSGRPAAARQAYSMTAVDEFGPVIDDIYDFAEAQGFEIDGITQEGGAGQLEINLRHGSPVKLADEVFYFKRLIREAALRHDCFATFMAKPIADEPGSAMHIHHSVIDIESGENIFSGPQGGETDAFYHFIGGLQNHLPAGLAVMAPYVNSYRRYVKNHAAPINLEWARDNRTTGIRVPLSSSASRRVENRIAGMDCNPYLGIAVSLACGYLGLMEERRPTRQFKGDAYEGEGDFPQVMGQALDLFDESKALHEVLGPEFARVYSTVKRAEYEEFLQVISPWEREHLLLNV | not soluble
